Data reported in US9327008B2, “Cell-permeant peptide-based inhibitor of kinases” (Purdue Research Foundation, priority 2008, dated 2016).
Non-standard residues stand in square brackets, D forms with d. No end group written: not given here.

Experiments:
MK2 [1] = molecular target: MK2 (Homo sapiens, UniProt P49137); experiment: Omnia fluorescence-based kinase activity assay for MAPKAP-K2 (reaction velocity); type: biochemical; design: purchased Invitrogen; details: for MK2 inhibition (in words): PTD peptide alone, 12.5-100 μM
Method: The Omnia® Kinase Assay for MAPKAP-K2 kit (Invitrogen, Carlsbad, Calif.), was used to determine the reaction velocity for MK2 in the presence and absence of each of the peptides listed in Table 1. The kit contains a proprietary reaction buffer to which the following were added (final concentrations are given): 1 mM ATP, 0.2 mM DTT, 10 μM MAPKAP-K2 Sox-modified peptide substrate, 5 ng MK2, and the inhibitor peptide of interest (final volume of 50 μL). Human MK2 was purchased from Invitrogen. The reactions were performed at 30° C. in the wells of a low-protein-binding 96-well plate provided with the kit, and fluorescence readings (excitation=360 nm, emission=485 nm) were taken every 30 seconds for 20 minutes using a SpectraMax M5 Spectrophotometer (Molecular Devices). Reaction velocity was determined for each reaction well from the slope of a plot of relative fluorescence units versus time. Each inhibitor peptide was tested at least at four concentrations, 12.5, 25, 50 and […], in triplicate.
In Table 1, “a” represents that the results shown are for 100 μM for all peptides; “b” represents the percentage change in MK2 reaction velocity versus the unsubstituted peptide ([…]) [SEQ ID NO: 13] at a concentration of 100 μM; “c” represents the error reported as the standard deviation between three samples.

[2] = test system: Ca2+/calmodulin-dependent protein kinase II (CaMKII); details: cited from earlier work
PKC = details: AIP 1 μM; cited from earlier work
PKA = details: AIP 1 μM; cited from earlier work
CaMKIV = CaMKIV (Homo sapiens, UniProt Q16566); details: AIP 1 μM; cited from earlier work
MK2 [3] = details: commercially available inhibitor; kinase not named at the place, used as inhibitor of MK2 (and PRAK); cited from earlier work
[4] = test system: IL-1β induced IL-6 expression in mesothelial cells (CRL-9444); experiment: IL-6 ELISA, mesothelial cells induced with IL-1β; type: cell-based; details: IL-1β 1 ng/ml; Rottlerin 1 μM
[5] = test system: IL-6 expression induced by TNF-α in mesothelial cells (CRL-9444); experiment: IL-6 ELISA, mesothelial cells induced with TNF-α; type: cell-based
Method: A cell line of pleural mesothelial cells (CRL-9444) was purchased from American Type Culture Collection. Cells were maintained and seeded in Medium 199 with Earle's BSS and 0.75 mM L-glutamine (Mediatech, Inc., Manassas, Va.), 1.25 g/L sodium bicarbonate (Sigma, St. Louis, Mo.), 3.3 nM epidermal growth factor (MBL International, Woburn, Mass.), 40 nM hydrocortisone (Sigma), 870 nM insulin (MBL International), 20 mM HEPES (Sigma), trace elements mixture B (Mediatech, Inc.), 10% fetal bovine serum (FBS) (Hyclone, Waltham, Mass.) and 1% penicillin/streptomycin (Mediatech, Inc.). Prior to treating cells with therapeutic inhibitor peptides, cells were allowed to acclimate in serum-free media consisting of only Medium 199 with Earle's BSS. L-glutamine, sodium bicarbonate, HEPES, trace elements mixture B, and penicillin/streptomycin (concentrations and suppliers as above) for 24 hours prior to treatment with cytokines and/or inhibitor peptides. […]
Standards (from 2 ng/ml to zero) and samples were prepared in diluent, immediately added to each well in triplicate, and incubated at room temperature for at least 2 hours on a plate shaker adjusted to 300 rpm. […] Hoeschst 33342 nuclear stain (Invitrogen) was used to quantify cell number on the basis of DNA quantity. […]
Results are presented as means±standard deviation. […] Significant differences were analyzed with Tukey HSD post hoc comparisons. […]

[6] = 100 μM peptide, percentage change in MK2 reaction velocity versus unsubstituted KALNRQLGVAA at 100 μM, SD of three samples

MK2 (Homo sapiens, UniProt P49137), sequence (P49137 whole entry): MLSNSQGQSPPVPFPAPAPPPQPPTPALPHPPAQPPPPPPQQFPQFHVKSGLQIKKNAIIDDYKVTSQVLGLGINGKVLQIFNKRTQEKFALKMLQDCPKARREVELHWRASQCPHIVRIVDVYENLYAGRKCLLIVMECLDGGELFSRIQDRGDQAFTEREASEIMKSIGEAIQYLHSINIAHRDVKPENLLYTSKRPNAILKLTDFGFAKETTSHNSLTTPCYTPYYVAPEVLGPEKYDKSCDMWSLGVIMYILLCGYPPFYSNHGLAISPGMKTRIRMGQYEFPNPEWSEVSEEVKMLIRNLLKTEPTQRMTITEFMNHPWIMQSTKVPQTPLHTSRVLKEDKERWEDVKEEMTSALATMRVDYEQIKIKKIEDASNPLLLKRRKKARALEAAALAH
CaMKIV, sequence (Q16566 whole entry, species assumed): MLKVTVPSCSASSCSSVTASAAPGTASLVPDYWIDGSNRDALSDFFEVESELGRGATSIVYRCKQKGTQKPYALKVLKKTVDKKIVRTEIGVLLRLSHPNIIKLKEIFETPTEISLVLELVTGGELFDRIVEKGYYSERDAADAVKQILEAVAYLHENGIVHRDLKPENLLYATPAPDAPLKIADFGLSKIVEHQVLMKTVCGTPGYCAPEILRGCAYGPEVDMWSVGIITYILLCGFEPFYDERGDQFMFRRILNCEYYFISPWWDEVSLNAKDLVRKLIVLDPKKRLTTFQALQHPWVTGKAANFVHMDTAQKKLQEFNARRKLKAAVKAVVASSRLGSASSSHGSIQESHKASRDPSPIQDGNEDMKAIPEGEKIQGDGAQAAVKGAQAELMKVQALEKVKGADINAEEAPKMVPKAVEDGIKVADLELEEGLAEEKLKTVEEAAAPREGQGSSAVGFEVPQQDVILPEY

Row | Molecule | percent change in MK2 reaction velocity versus unsubstituted peptide (MK2 [1]; [6]) | also measured
1 | KAdLNRQLGVAA (KA[dL]NRQLGVAA-NH2) [therapeutic domain, D-amino acid substitution] | 46(7) % | –
2 | KALNRQLGVA [therapeutic domain without C-terminal Ala] | 0(5) % | –
3 | KAANRQLGVAA [therapeutic domain, alanine substitution] | +52(6) % | –
4 | KALNRQLAVAA [therapeutic domain, alanine substitution] | −28(5) % | –
5 | KALdNRQLGVAA (KAL[dN]RQLGVAA-NH2) [therapeutic domain, D-amino acid substitution] | −5(10) % | –
6 | KKALRRQEAVDAL [AIP, autocamtide-2 related inhibitory peptide] | – | CaMKII activity ([2]; AIP 1 μM): inhibited completely; IC50 [2]: 100 nM; PKC activity (PKC): not affected; PKA activity (PKA): not affected; CaMKIV activity (CaMKIV): not affected
7 | WLRRIKA [cell penetrating peptide domain (non-functional)] | – | % of KALNRQLGVAA [SEQ ID NO: 13] Reaction Velocity (+VoSD) (MK2 [1]; [6]): 306%
8 | KALNRQLGVAA [unsubstituted therapeutic domain peptide] | +258(26) % | inhibition of MK2 activity (MK2 [1]; 100 μM peptide): 73%
9 | KALNRQdLGVAA (KALNRQ[dL]GVAA-NH2) [therapeutic domain, D-amino acid substitution] | +257(17) % | –
10 | WLRRIKAWLRRIKA [protein transduction domain peptide] | −83(4) % | MK2 inhibition (in words) (MK2 [1]): potently inhibited
11 | KKKALNRQLGVAA [therapeutic domain with two additional N-terminal Lys] | −9(8) % | –
12 | YGRKKRRQRRR [protein transduction domain peptide, reference compound] | +44(17) % | inhibition of MK2 activity (MK2 [1]; 25 μM peptide): 48%; inhibition of MK2 activity (MK2 [1]; 100 μM peptide): 61%
13 | KALARQLGVAA [therapeutic domain, alanine substitution] | −61(2) % | –
14 | KALNRQAGVAA [therapeutic domain, alanine substitution] | +18(7) % | –
15 | KALNAQLGVAA [therapeutic domain, alanine substitution] | +258(14) % | –
16 | KALNRdQLGVAA (KALNR[dQ]LGVAA-NH2) [therapeutic domain, D-amino acid substitution] | +176(5) % | –
17 | CC(=O)c1c(O)c(C)c(O)c(Cc2c(O)c3c(c(C(=O)/C=C/c4ccccc4)c2O)OC(C)(C)C=C3)c1O [Rottlerin] | – | IC50 (MK2 [3]): 5000 nM; IL-1β induced IL-6 expression (FIG. 7) [4]: significantly reduced; time at which significant reduction of IL-1β induced IL-6 expression occurs [4]: 12 h; level of expression of IL-6 induced by TNF-α (FIG. 8) ([5]; TNF-α 1 ng/ml): ineffective; level of expression of IL-6 induced by TNF-α (FIG. 9) ([5]; TNF-α 10 ng/ml, initially, from 6-12 hours): minimal reduction
18 | KALNdRQLGVAA (KALN[dR]QLGVAA-NH2) [therapeutic domain, D-amino acid substitution] | +206(7) % | –
19 | KALNRQLGdVAA (KALNRQLG[dV]AA) [therapeutic domain, D-amino acid substitution] | +160(23) % | –
20 | KALNRQLGAAA [therapeutic domain, alanine substitution] | +273(22) % | –
21 | YARAAARQARA [synthetic protein transduction domain peptide PTD-4, reference compound] | +149(13) % | MK2 inhibition (in words) (MK2 [1]): least affected
